Reference: publication PMC13012646

Biological target: human kallikrein 7 variant hK7-2.7 (human) (UniProt P49862)
Sequence of UniProt P49862 (P49862 30-253 Q52R/N119S/K129G/V157G/L189Q/Q228R/G233V): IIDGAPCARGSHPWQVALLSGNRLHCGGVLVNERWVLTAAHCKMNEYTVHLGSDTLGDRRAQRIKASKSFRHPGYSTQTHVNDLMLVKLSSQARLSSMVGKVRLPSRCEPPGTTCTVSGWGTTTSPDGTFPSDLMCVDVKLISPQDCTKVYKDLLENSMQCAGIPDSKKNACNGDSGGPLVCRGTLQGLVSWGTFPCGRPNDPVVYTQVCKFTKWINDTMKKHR

**Q.** Which inhibition of Aβ8 FRET reporter cleavage (5 nM protease, 200 nM substrate, 37°C) does the source give for “lympho-epithelial Kazal-type related inhibitor (LEKTI) fragment consisting of domains 10–15 (domain or fragment)” here?
**A.** > 130 nM
